Test results taken from paper PMC11076555, “Dishevelled2 activates WGEF via its interaction with a unique internal peptide motif of the GEF” (Communications Biology, 2024).

B1: Human Dishevelled2 PDZ domain (domain or fragment, UniProt O14641 261-354, looked up)
chain: MSLNIITVTLNMEKYNFLGISIVGQSNERGDGGIYIGSIMKGGAVAADGRIEPGDMLLQVNDMNFENMSNDDAVRVLRDIVHKPGPIVLTVAKC
modifications: Monolith Red-maleimide 2nd generation cysteine-reactive fluorescent label (in the MST experiments)
notes: Dishevelled2 (Dvl2), human, PDZ domain; Addgene plasmid 38876 changed by a stop codon after C354 to remove the peptide fused at the C-terminus of the PDZ; Used unlabelled in the GEF assays and labelled in MST; also called Dvl2^PDZ; hDvl2^PDZ; source: E. coli Rosetta (DE3), purified (Ni-NTA, TEV cleavage, second Ni-NTA, gel filtration); not shown: His6, N-terminal, cleaved

Legend:
[1] = molecular target: B1; assay: MST; 50 nM fluorescently labelled Dvl2^PDZ (Red-maleimide, cysteine reactive); peptides serially diluted 1:2 16 times from about 3.4 mM, hWGEF (330-581) 138-0.0042 uM; 25 C, 30 min incubation; 10 mM Tris-HCl pH 8, 150 mM NaCl, 2 mM DTT, 5% glycerol, 0.05% Tween20; Monolith NT.115; triplicates; settings: both partners purified
[2] = molecular target: Xenopus laevis WGEF (330-856) (Xenopus laevis); assay: cell-based or functional assay
human WGEF (330-581) = molecular target: T1, human WGEF (330-581) (human, UniProt Q8IW93 330-581); assay: MST; 50 nM fluorescently labelled Dvl2^PDZ (Red-maleimide, cysteine reactive); peptides serially diluted 1:2 16 times from about 3.4 mM, hWGEF (330-581) 138-0.0042 uM; 25 C, 30 min incubation; 10 mM Tris-HCl pH 8, 150 mM NaCl, 2 mM DTT, 5% glycerol, 0.05% Tween20; Monolith NT.115; triplicates; settings: both partners purified
T1 construct: Weak-similarity guanine nucleotide exchange factor (WGEF, Arhgef19, Ephexin2), human, residues 330-581; also called hWGEF; hWGEF^330-581; not shown: GST, N-terminal, cleaved
T1 sequence (looked up): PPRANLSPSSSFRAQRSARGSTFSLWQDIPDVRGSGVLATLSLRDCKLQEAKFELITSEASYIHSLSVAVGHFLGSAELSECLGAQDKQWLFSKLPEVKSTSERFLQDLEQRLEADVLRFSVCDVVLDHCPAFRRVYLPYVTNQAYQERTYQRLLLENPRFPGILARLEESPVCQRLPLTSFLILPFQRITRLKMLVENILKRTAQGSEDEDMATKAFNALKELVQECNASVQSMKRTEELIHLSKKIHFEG

Binder | Kd [1] [µM] | GEF activity of xWGEF330 (5 uM) on Mant-GDP loaded RhoA with 0, 25 and 50 uM Dvl2^PDZ; no observable change at 25 uM [2] [fold] | Kd (human WGEF (330-581)) [µM]
GSTFSLWQDIP (also called WGEF IPM peptide; source: synthetic peptide, bought: Sai Biotech) [WGEF^pep (internal PDZ binding motif peptide of WGEF)] | 45 |  | 
GSTFSAWQDIP (WGEF (Arhgef19), human residues 349-359 with L6A; numbers count on: the peptide (1-11); L6 is L354 of human WGEF and L407 of Xenopus WGEF (from the printed limits); source: synthetic peptide, bought: Sai Biotech) [WGEF^pepL6A] | 2400 |  | 
GSTFSLWQDAP (WGEF (Arhgef19), human residues 349-359 with I10A; numbers count on: the peptide (1-11); I10 is I358 of human WGEF (from the printed limits); also called Ile at P1 to Ala; source: synthetic peptide, bought: Sai Biotech) [WGEF^pepI10A] | 56 |  | 
GSTFSLWADIP (WGEF (Arhgef19), human residues 349-359 with Q8A; numbers count on: the peptide (1-11); Q8 is Q356 of human WGEF (from the printed limits); source: synthetic peptide, bought: Sai Biotech) [WGEF^pepQ8A] | 8.5 |  | 
EIVLWSDIP (engineered peptide, closest homologue of WGEF^pep; structure with Dvl2^PDZ in PDB 3CC0; also called engineered internal peptide N3; source: synthetic peptide, bought: Sai Biotech) [N3^pep] | 54 |  | 
B1 |  | 4 | 7.9
